± gives the uncertainty stated by the source.

The values below come from the supplement of paper PMC12042874.

A short description of this data set: amyloid nucleation score (Sup35N fusion, yeast selection) (log enrichment); library NNK2; higher = more nucleation; inactive = no reads after selection. The method in brief:
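The nucleation score equals the log enrichment of output over input reads from DiMSum, centred on the mode score of non-aggregating sequences. It was computed only for sequences with 100 or more input reads. The reads came from Illumina sequencing of plasmid inserts from psi-negative yeast expressing Sup35N fused to peptides of 20 random codons, induced with 100 μM copper sulfate for 24 hours and grown 7 days at 30°C without adenine and uracil.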

For the substance TSLTQDLEMVLSFNFCMGLA, the amyloid nucleation score is -0.158 ± 0.44.
As for FGIGFGFLVHYDGRFWVYFG, the amyloid nucleation score entry was “inactive”.
To QICHHIDYVFRCHDI belongs 0.585 ± 0.8; to INVLFRVSPRISAVRNVCST, -0.271 ± 0.36.
LDLMKSSLGCQKG registered an amyloid nucleation score of -0.001 ± 0.23.
To AFPTKCNVRSMSMHRLLLLC belongs “inactive”.
With RMVLSGNLLQRNRNYPNQRM, the amyloid nucleation score was found to be 2.03 ± 0.079.
SRICMKWDSSNLWSF: the amyloid nucleation score entry is “inactive”.
KDLPTSYIYMFDY: the amyloid nucleation score is -1.2 ± 0.78.
For MFVWVQSRIGKGFGMGFRRW the value was -0.307 ± 0.76; for WSYLVLSPMRRNRVRMVHII, -0.517 ± 0.63; for LRPLVL, -0.686 ± 1.1.
As to AALCRMFWTAISYWCEWSLG, the amyloid nucleation score turned out to be 0.157 ± 0.55.
In the case of IYINYHREA, the amyloid nucleation score stood at 3.54 ± 0.052.
For CYNVGEGIVARIRGGSKGLK the value was 0.619 ± 0.81.
On to NNVGWVLHDGRFFSVSHYIA, for which the amyloid nucleation score was determined as 0.294 ± 1.1.
To VGRTVMKWACIVE belongs 4.878 ± 0.034; to SGNGTVRSEYTRYCCLKGEM, 0.822 ± 0.3.
For the substance KLRGIPYRF, the amyloid nucleation score entry was “inactive”.
YWELDCTGYEGGMIRREWEI registered an amyloid nucleation score of 0.586 ± 0.81.
For YSFRGWSSSVWVTGWCGRSA the value was 0.45 ± 0.62; for RFTESYSL, -0.935 ± 0.48; for TCVCWGPCRSV, -0.895 ± 1.
For MSRSVVESQMVLSDDFWHQG the value was -0.41 ± 0.22; for SLCLLIALSRWSIAS, 1.14 ± 0.3; for CDGSGCTDFVVCLHK, -0.195 ± 0.31.
Consider KGAFANL, for which the amyloid nucleation score was -1.63 ± 0.55.
ANLLKTRRVMYRGFG came in with an amyloid nucleation score of 0.611 ± 0.38.
To NRICYRLGCLRADNDNDLSG belongs -0.234 ± 0.26; to TPNQGNPSGYFFDNSFMKPF, “inactive”.
For WTGSFRMSRQHMWNSTSFQM the value was -0.215 ± 0.5; for MPWFIQMVHLCWFPEGRTRF, 4.85 ± 0.071.
To AFVLRVNYNLNTRGYVSLFK belongs 2.14 ± 0.14; to DKWLWEL, 0.575 ± 0.32.
In the case of GYWEAFFQLGASPYAGRSRG, the amyloid nucleation score was -0.13 ± 0.76.
To IMMQDWGIGFAFIGSPCRCD belongs 9.01 ± 0.048.
As to RILYLTTDGRKLM, the amyloid nucleation score result is “inactive”.
To VFVMKMPWQSLISNLIFTSM belongs 1.23 ± 0.2.
Substance AFNCT came in with an amyloid nucleation score of -0.684 ± 0.78.
To FSFLGDPKNERTVSWVMGHR belongs 0.478 ± 0.32; to YFWDQGLHPVSFRESTYDLV, -0.243 ± 1.1.
Consider SSFWFSGAADINRVVLRGIE, for which the amyloid nucleation score was -0.175 ± 0.32.
Substance TWTRLALFMLIPSG showed an amyloid nucleation score of 0.464 ± 0.35.
On to WNKLSLA, for which the amyloid nucleation score was 0.443 ± 0.49.
FSGHILGRPFDGRSLVCMS: the amyloid nucleation score entry is “inactive”.
To NRLMVPSTNKFTCLPE belongs 0.056 ± 0.36; to VKGVLPVLWMGFNKQHFINH, 0.602 ± 0.81; to RAVEEYAVPS, 0.878 ± 0.35.
In turn, TDCMPMHVYGDYYLMGMSRE yielded an amyloid nucleation score of -0.555 ± 0.33.
For MACKGLSLCFVWVLENKRRS the value was 0.454 ± 0.23.
To YSSCLCLQCTRMQTPMVQFL belongs 0.032 ± 0.53; to FRSVFDKFLRYVFSFDVY, -0.984 ± 0.76; to RNGVLAIGLY, -0.759 ± 0.63.
Consider FGFWDLMSCTSRMGTIIRLY, for which the amyloid nucleation score entry was “inactive”.
To LYFMCNFLTCSL belongs 7.893 ± 0.057; to RKCLGLRSYATTFRVDQHSC, 0.266 ± 0.3.
For LRFRKMAKKCNYVVRVVLGF the value was -0.273 ± 0.29.
For the substance AFSSLFWIWIPSNMRSQVLK, the amyloid nucleation score worked out at 0.124 ± 0.42.
Substance VFMCVGFLLYHMNSELGPRG came in with an amyloid nucleation score of 2.88 ± 0.087.
To YGYSIYLFTGCVKTVLFVSD belongs 4.68 ± 0.048; to YSFFCSMILYPIHDNVGWSF, 4.86 ± 0.088.
Turning to VNSNEVFIYPFTNLNFMML, the amyloid nucleation score stood at 5.17 ± 0.087.
In the case of FTSLGMQLCYWHRISLCVSW, the amyloid nucleation score is -1.05 ± 0.61.
In turn, YVLDFSNWIGDTADSIVAV registered an amyloid nucleation score of 0.145 ± 0.56.
With YNFLWWSMKDT, the amyloid nucleation score result is “inactive”.
To RKVFLRLCLLVWLNG belongs -0.292 ± 0.3.
For LYFSNPWFMIKSRDMFVCIG the value was 0.51 ± 0.18; for IHLHYNVDNCTFELLK, -0.499 ± 0.26; for FTDCHWSDLLRSFVAWYDIV, 0.918 ± 0.58.
For TAWHFPCRQRDLQLVSKVTG the value was “inactive”.
Consider FFSNIFIEASVCELGSNANV, for which the amyloid nucleation score is 1.03 ± 0.23.
Turning to ILGISCVFY, the amyloid nucleation score is 7.227 ± 0.072.
To LVQRWGWSKPLIAGI belongs -0.271 ± 0.49; to SLEDCYCDRVI, -0.528 ± 0.34; to FLEQFVMSLT, -0.752 ± 0.44.
With TLTRGSISSIVDASWNMEKT, the amyloid nucleation score is -0.061 ± 0.46.
To SNLNLFITYLTLSTNDR belongs 9.225 ± 0.042.
In turn, RSENSILHVLHRFVA gave an amyloid nucleation score of -0.559 ± 0.64.
To VTNYVEFCTGFRICGVSLPC belongs 8.387 ± 0.036; to IWRFRGRRNRAWKF, -0.333 ± 0.62.
On to IYIMVTVF, for which the amyloid nucleation score was 0.086 ± 0.33.
For NHMKFAGLGGCYSYCTFLVD the value was 6.587 ± 0.045; for VYYLVCGL, 0.147 ± 0.38; for FYSLQFLTILLVTFMEATYP, -0.165 ± 0.27.
As to ALRVLFLVVWSEHDDCYCGG, the amyloid nucleation score is 0.665 ± 0.42.
To LRLFCDMYTISSNAVDFVKF belongs “inactive”.
For VKVHSIESGGLRPWCVGASV the value was 0.747 ± 0.3; for KSESLLPLNWAHARALIHRA, 1.1 ± 0.36; for VFTISESHLCWQYHLQEFT, 4.76 ± 0.068.
As to NMCWFKPG, the amyloid nucleation score was -0.329 ± 0.17.
For RNLTFYKTSPVGRC the value was 0.712 ± 0.4.
For VEWKRRNRVRVSRCELWFCF the value was 3.93 ± 0.087.
For LPCFL the value was 1.93 ± 0.1.
Regarding DIRIL, the amyloid nucleation score was -0.635 ± 0.44.
Take VLALYYINSATLILFLIFKS: the amyloid nucleation score was -1.16 ± 1.1.
YSRWRSLCTGAAFPGFWLNT returned an amyloid nucleation score of 1.96 ± 0.14.
Regarding SNNWSLDMRRPVFKPPYGEG, the amyloid nucleation score is -0.744 ± 0.53.
The substance RCKYWNTKCTTIYRGRVSYL displayed an amyloid nucleation score of -0.733 ± 0.29.
WDGNYSSKVCFTQLRMSWCL came in with an amyloid nucleation score of 1.75 ± 0.27.
For KRKLSKYFLRLKLKCFWVM the value was -0.753 ± 0.48; for LTLAS, 0.49 ± 0.25.
For IFNVSMSIVRSLVITCMWGL, the amyloid nucleation score came out at 5.321 ± 0.043.
As for MAMVLWLECTS, the amyloid nucleation score was determined as 0.924 ± 0.47.
